For two substances, stoichiometry N and fraction of dimers results are on record in paper doi:10.1101/2024.04.20.590211.

Broadly, the stoichiometry N is a count of units in the complex or per binding partner.

In test [1] the target is FluPolA/H7N9-WT, wild-type influenza A/Zhejiang/DTID-ZJU01/2013(H7N9) polymerase heterotrimer (influenza A virus A/Zhejiang/DTID-ZJU01/2013(H7N9)) (UniProt M9TI86). Kind of test: SEC.
Test [2] has as its target FluPolB, influenza B/Memphis/2003 polymerase heterotrimer (wild type) (influenza B virus B/Memphis/2003) (UniProt Q5V8Z9). Kind of test: mass photometry.

Values joined by “and” are separate entries in the source; they are usually repeats but may differ in a detail not shown here. Equal values may be shown once.

For the substance “FluPolA/H7N9-WT, wild-type influenza A/Zhejiang/DTID-ZJU01/2013(H7N9) polymerase heterotrimer (from UniProt M9TI86;M9TLW3;X5F427) (complex)”, the stoichiometry N in test [1] came to 2.

For “FluPolB, influenza B/Memphis/2003 polymerase heterotrimer (wild type) (from UniProt Q5V8Z9;Q5V8Y6;Q5V8X3) (complex)”, in test [2], the fraction of dimers is 7% and 15%; the stoichiometry N was determined as 2.
